Columns and labels:
[1] = target: T1, Peptide fragment KS24; assay: indirect ELISA, peptide as coating antigen
T1 construct: It contains VLQS; Used as ELISA coating antigen
T1 peptide: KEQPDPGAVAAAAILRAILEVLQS

[2] = target: T2, Peptide fragment KL19; assay: indirect ELISA, peptide as coating antigen
T2 construct: Used as ELISA coating antigen
T2 peptide: KEQPDPGAVAAAAILRAIL

B1: KA-001 monoclonal antibody (antibody, mouse IgG1, kappa, V domains shown)
VH: DVKIVESGGGLVKLGGSLKLSCAASGFTFSRNYMSWVRQTPEKRLELVAGINNNGGSTYYPDTVKGRFTISRDNAKNTLYLQMSSLRSEDTAIYYCAKRGFITTVGAMDYWGQGISVTVSS
VL: DIQMTQTTFSLSASLGDRVTISCRASQDISNYLNWYQQIPDGTVKLLIYYTSRLHSGVPSRFSGSGSGTDYSLTISNLEQEDIATYFCQQVHTLPYTFGGGTKLEMKR
notes: also called antibody KA-001
binding result [1]: binds
binding result [2]: no binding

Source: patent publication EP4613777A1 (Guangdong Keyangle Life Technology Co., Ltd., dated 2025)
